Publication PMC12264551 (Molecular Pharmacology, 2025)

Legend:
[1] = biological target: T1, calcitonin receptor (Homo sapiens, UniProt P30988); test: Live cell cAMP accumulation (GloSensor), MCF-7 cells with endogenous calcitonin receptor; format: cell-based; parameters: COS-7 (African monkey kidney) in A3; conditions: calcitonin + vehicle, Fig. 1D, fraction of greatest slope, ± SEM, n = 3
T1 sequence (P30988 25-474): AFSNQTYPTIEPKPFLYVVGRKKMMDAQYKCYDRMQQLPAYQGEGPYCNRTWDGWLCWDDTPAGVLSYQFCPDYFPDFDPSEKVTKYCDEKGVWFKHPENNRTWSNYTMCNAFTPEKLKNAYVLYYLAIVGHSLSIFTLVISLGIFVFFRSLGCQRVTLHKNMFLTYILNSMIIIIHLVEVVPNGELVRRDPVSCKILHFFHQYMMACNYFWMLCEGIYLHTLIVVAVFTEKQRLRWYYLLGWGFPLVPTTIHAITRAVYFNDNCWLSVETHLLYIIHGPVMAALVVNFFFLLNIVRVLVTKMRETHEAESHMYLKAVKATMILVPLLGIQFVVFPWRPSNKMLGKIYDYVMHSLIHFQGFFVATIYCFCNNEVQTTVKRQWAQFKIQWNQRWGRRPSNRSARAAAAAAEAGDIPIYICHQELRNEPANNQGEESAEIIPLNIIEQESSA

[2] = biological target: T1, calcitonin receptor; test: Live cell cAMP accumulation (GloSensor), COS-7 cells transfected with calcitonin receptor; format: cell-based; parameters: host or cells: COS-7 (African monkey kidney) in A3; conditions: calcitonin + vehicle, Fig. 1F, fraction of greatest slope, ± SEM, n = 3
[3] = biological target: T1, calcitonin receptor; test: Live cell cAMP accumulation (GloSensor), UMR-106 cells transfected with calcitonin receptor; format: cell-based; parameters: host or cells: UMR-106 (rat osteoblast-like) in A1; COS-7 (African monkey kidney) in A3; conditions: calcitonin + vehicle, Fig. 1B, fraction of greatest slope, best-fit ± SEM, n = 3
[4] = biological target: calcitonin receptor (UniProt P30988)
[5] = biological target: calcitonin receptor, endogenous in MCF-7 cells (human (endogenous in MCF-7)) (UniProt P30988)
[6] = biological target: T2, VPAC1R, endogenous in SaOS-2 cells (human (endogenous in SaOS-2)) (UniProt P32241)
T2 sequence: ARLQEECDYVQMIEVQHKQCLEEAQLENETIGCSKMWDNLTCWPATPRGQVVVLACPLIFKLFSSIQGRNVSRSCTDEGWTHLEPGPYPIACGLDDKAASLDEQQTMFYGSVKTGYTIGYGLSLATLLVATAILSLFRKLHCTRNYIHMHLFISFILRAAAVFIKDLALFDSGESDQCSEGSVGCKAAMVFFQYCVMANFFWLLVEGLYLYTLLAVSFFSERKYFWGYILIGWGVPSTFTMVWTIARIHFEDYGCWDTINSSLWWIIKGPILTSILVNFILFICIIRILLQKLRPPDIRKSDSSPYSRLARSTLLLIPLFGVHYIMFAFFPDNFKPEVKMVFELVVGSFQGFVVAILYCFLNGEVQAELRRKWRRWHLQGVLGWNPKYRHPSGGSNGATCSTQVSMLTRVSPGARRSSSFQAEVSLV

[7] = biological target: T3, vasoactive intestinal polypeptide receptor 1 (UniProt P32241)
T3 sequence: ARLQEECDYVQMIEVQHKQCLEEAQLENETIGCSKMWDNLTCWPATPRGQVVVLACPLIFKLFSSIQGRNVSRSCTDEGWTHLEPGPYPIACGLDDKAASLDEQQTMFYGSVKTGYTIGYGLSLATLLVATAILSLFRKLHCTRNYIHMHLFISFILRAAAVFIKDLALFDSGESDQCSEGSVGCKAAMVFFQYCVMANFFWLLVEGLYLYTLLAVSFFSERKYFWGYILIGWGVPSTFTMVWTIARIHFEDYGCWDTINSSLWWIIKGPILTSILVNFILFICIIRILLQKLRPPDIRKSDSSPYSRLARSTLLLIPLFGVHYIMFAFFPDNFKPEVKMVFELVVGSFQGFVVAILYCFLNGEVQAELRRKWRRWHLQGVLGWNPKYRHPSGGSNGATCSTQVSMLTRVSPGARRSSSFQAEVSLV

[8] = biological target: T4, vasoactive intestinal polypeptide receptor 2 (UniProt P41587)
T4 sequence: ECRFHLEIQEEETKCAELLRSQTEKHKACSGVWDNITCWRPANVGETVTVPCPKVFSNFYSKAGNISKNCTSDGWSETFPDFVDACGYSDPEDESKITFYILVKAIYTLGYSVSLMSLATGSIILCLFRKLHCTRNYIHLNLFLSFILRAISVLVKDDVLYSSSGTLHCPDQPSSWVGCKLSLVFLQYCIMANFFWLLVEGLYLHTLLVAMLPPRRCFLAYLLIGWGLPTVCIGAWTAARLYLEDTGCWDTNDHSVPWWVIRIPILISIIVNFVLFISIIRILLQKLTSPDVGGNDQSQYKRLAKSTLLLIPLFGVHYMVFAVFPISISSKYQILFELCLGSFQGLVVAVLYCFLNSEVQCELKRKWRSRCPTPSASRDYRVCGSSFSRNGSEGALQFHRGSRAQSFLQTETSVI

CC(C)C[C@H](NC(=O)[C@H](CCCCN)NC(=O)CNC(=O)[C@H](CC(C)C)NC(=O)[C@@H](NC(=O)[C@@H]1CSSC[C@H](N)C(=O)N[C@@H](CO)C(=O)N[C@@H](CC(N)=O)C(=O)N[C@@H](CC(C)C)C(=O)N[C@@H](CO)C(=O)N[C@@H]([C@@H](C)O)C(=O)N1)C(C)C)C(=O)N[C@@H](CO)C(=O)N[C@@H](CCC(N)=O)C(=O)N[C@@H](CCC(=O)O)C(=O)N[C@@H](CC(C)C)C(=O)N[C@@H](Cc1c[nH]cn1)C(=O)N[C@@H](CCCCN)C(=O)N[C@@H](CC(C)C)C(=O)N[C@@H](CCC(N)=O)C(=O)N[C@H](C(=O)N[C@@H](Cc1ccc(O)cc1)C(=O)N1CCC[C@H]1C(=O)N[C@@H](CCCNC(=N)N)C(=O)N[C@H](C(=O)N[C@@H](CC(N)=O)C(=O)N[C@H](C(=O)NCC(=O)N[C@@H](CO)C(=O)NCC(=O)N[C@H](C(=O)N1CCC[C@H]1C(N)=O)[C@@H](C)O)[C@@H](C)O)[C@@H](C)O)[C@@H](C)O [calcitonin, Salmon calcitonin]
Normalized Maximum [1]: 0.68 ± 0.05
Normalized Maximum [2]: 0.69 ± 0.04
Normalized Maximum [3]: 0.69 ± 0.04

Salmon calcitonin (peptide)
−LogEC50 of calcitonin, maximum rate of cAMP accumulation (GloSensor), COS-7 cells transfected with calcitonin receptor, vehicle (Fig. 1F) (−LogEC50 (EC50 in M)) [4]: 9.64
−LogEC50 of calcitonin, maximum rate of cAMP accumulation (GloSensor), COS-7 cells transfected with calcitonin receptor, with ATP 1.5 mM (Fig. 1F) (−LogEC50 (EC50 in M)) [4]: 10.5
−LogEC50 of calcitonin, maximum rate of cAMP accumulation (GloSensor), UMR-106 cells transfected with calcitonin receptor, vehicle (Fig. 1B) (−LogEC50 (EC50 in M)) [4]: 9.15
−LogEC50 of calcitonin, maximum rate of cAMP accumulation (GloSensor), UMR-106 cells transfected with calcitonin receptor, with ATP 1.5 mM (Fig. 1B) (−LogEC50 (EC50 in M)) [4]: 10.3
−LogEC50 of calcitonin, maximum rate of cAMP accumulation (GloSensor), MCF-7 cells (endogenous calcitonin receptor), vehicle (Fig. 1D) (−LogEC50 (EC50 in M)) [5]: 8.19
−LogEC50 of calcitonin, maximum rate of cAMP accumulation (GloSensor), MCF-7 cells (endogenous calcitonin receptor), with ATP 1.5 mM (Fig. 1D) (−LogEC50 (EC50 in M)) [5]: 9.86

HSDAVFTDNYTRLRKQMAVKKYLNSILN [vasoactive intestinal peptide]
−LogEC50 of VIP, maximum rate of cAMP accumulation (GloSensor), SaOS-2 cells (endogenous VPAC1R), vehicle (Fig. 6K) (−LogEC50 (EC50 in M)) [6]: 8.35
−LogEC50 of VIP, maximum rate of cAMP accumulation (GloSensor), SaOS-2 cells (endogenous VPAC1R), with ATP 1.5 mM (Fig. 6K) (−LogEC50 (EC50 in M)) [6]: 9.24
−LogEC50 of VIP, maximum rate of cAMP accumulation (GloSensor), COS-7 cells transfected with VPAC1R, vehicle (Fig. 6E) (−LogEC50 (EC50 in M)) [7]: 9.56
−LogEC50 of VIP, maximum rate of cAMP accumulation (GloSensor), COS-7 cells transfected with VPAC1R, with ATP 1.5 mM (Fig. 6E) (−LogEC50 (EC50 in M)) [7]: 10.3
−LogEC50 of VIP, maximum rate of cAMP accumulation (GloSensor), COS-7 cells transfected with VPAC2R, vehicle (Fig. 6H) (−LogEC50 (EC50 in M)) [8]: 8.9
−LogEC50 of VIP, maximum rate of cAMP accumulation (GloSensor), COS-7 cells transfected with VPAC2R, with ATP 1.5 mM (Fig. 6H) (−LogEC50 (EC50 in M)) [8]: 9.42
